Laboratory results as given in the nanobody polyreactivity screen of Harvey et al. (2022).

Experiment: yeast display, Sf9 membrane polyspecificity reagent, FACS + sequencing; frameworks hold sequencing errors
Method in brief: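 Polyreactivity labels are assigned by the sorting gate from which each nanobody was recovered. The gates were low and high (top ~1%), set on anti-HA fluorescence for expression and streptavidin fluorescence for reagent binding. Before sorting, galactose-induced (36–48 hours) yeast display cells were stained for 1 hour at 4 °C with 10% biotinylated, detergent-solubilized Sf9 membrane reagent.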

Row | Sequence | polyreactivity (PSR sort gate)
1 | QVQLVESGGGLVQAGGSLRLSCAASGSTFSVYAMGWYRQAPGKERELVAAISSSGANTYYADSVKGRFTISRDNAKNTVYLQMNSLKPEDTAVYYCAAYVSGGYEYDYWGQGTQVTVSS | low polyreactivity
2 | QVQLVESGGGLVQAGGSLRLSCAASGSTFSVYAMGWYRQAPGKERELVATISWGGGITYYADSVKGRFTISRDNAKNTVYLQMNSLKPEDTAVYYCAAYARYPRYYYWGQGTQVTVSS | high polyreactivity
3 | QVQLVESGGGLVQAGGSLRLSCAASGSTFSWNTMGWYRQAPGKERELVAAINSGGSTYYADSVKGRFTISRDNAKNTVYLQMNSLKPEDTAVYYCAARTNYYGRFDYWGQGTQVTVSS | low polyreactivity
4 | QVQLVESGGGLVQAGGSLRLSCAASGSTFSWYAMGWYRQAPGKERELVAAISYSGGTYYADSVKGRFTISRDNEKNTVYLQMNSLKPEYNAVYYCAALRTRYGYDYWGQGTQVTLSS | high polyreactivity
5 | QVQLVESGGGLVQAGGSLRLSCAASGSTFSYAMGWYRQAPGKERELVAAITTSGGSTYYADSVKGRFTISRDNAKNTVYLQMNSLKPVDTAVDYCARERYYRRFYRPRRYDYWGQGTQVTVSS | low polyreactivity
6 | QVQLVESGGGLVQAGGSLRLSCAASGSTFSYNAMGWYRQAPGKERELVAAISFISGSTYYADSVKGRFTISRDNAKNTVYLQMNSLKPEDTAVYYCNAGRTRRRDYYWQYDYWGQGTQVTVSS | high polyreactivity
7 | QVQLVESGGGLVQAGGSLRLSCAASGSTFSYYAMGWYRQAPGKERELVAAIRKSGGSTYYADSVKGRFTISRDNAKNTVYLQMNSLKPEDTAVYSCAAVFSYYGWYSRYDYWGQGTQVTVSS | low polyreactivity
8 | QVQLVESGGGLVQAGGSLRLSCAASGSTFSYYAMGWYRQAPGKERELVAAITSSGGRTYYADSVKGRFTISRDNAKYTVYLQMNSLKPEDTAVYYCATRKPRYQRAFDSWGQGTQVTVSA | high polyreactivity
9 | QVQLVESGGGLVQAGGSLRLSCAASGSTFSYYAMGWYRQAPGKERELVAAITTSGGRTYYADSVKGRFTISRDNAKFTVYLQMNSLKPEDTAVYYCNARSGRLGDYWGQGTQVTVSS | high polyreactivity
10 | QVQLVESGGGLVQAGGSLRLSCAASGSTFSYYAMGWYRQAPGKERELVAVISWSGGSTYYADSVKGRFTISRDNAKNTVYLQMNSLKPEDTAVYYCAARGYVRWYNRYDYWGQGTQVTVSS | low polyreactivity
11 | QVQLVESGGGLVQAGGSLRLSCAASGSTFSYYTMGWYRPAPGKERELVAAITRRGDSTYADSVKGRFTISRDNAKNTGYLQMNSLKPEATAVYYCAADASVGVSGMDYWGQGTQVTVSS | low polyreactivity
12 | QVQLVESGGGLVQAGGSLRLSCAASGSTFTAKAMGWYRQAPGKERELVASISARDGSTYADSVKGRFTISRDNAKNTVYLQMNSLKPEDTAVYYCNAAYFHIFPYDYDYWGQGTQVTVSS | low polyreactivity
13 | QVQLVESGGGLVQAGGSLRLSCAASGSTFTANAMGWYRQAPWKERELVASISAREGSTYADSVKGRFTISRDNANNTVYLQMNSLKPEDTAVYYCNAAYFHIFPYDYDYWGQCTQVTVSS | low polyreactivity
14 | QVQLVESGGGLVQAGGSLRLSCAASGSTFTAYAMGWYRQAPGKERELVAAISKRSGGTYYADSVKGRFTISRDNAKNTVYLQMNSLKPEDTAVYYCGQGTQVTVSS | low polyreactivity
15 | QVQLVESGGGLVQAGGSLRLSCAASGSTFTAYAMGWYRQAPGKERELVAVITSGGGTFYADSVKGRFTISRDNAKNTVYLQMNSLKPEDTAVYYCNAARTYPGTYIYRYGYWGQGTQVTVSP | high polyreactivity
16 | QVQLVESGGGLVQAGGSLRLSCAASGSTFTFNAMGWYRQAPGKERELVAAITSRGGSTYYADSVKGRFTISRDNAKNTVYLQMNSLKPEDTAVYYCAATLRGQKTRREYWGQGTQVTVSS | high polyreactivity
17 | QVQLVESGGGLVQAGGSLRLSCAASGSTFTGNAMGWSRQAPGKERELVAAITDRGGSTYADSVKGRFTISRDNAKNTVYLQMNSLKPEDSAVYYCATRRDLHDRYEYDYWGQGTQVTVSS | low polyreactivity
18 | QVQLVESGGGLVQAGGSLRLSCAASGSTFTGNAMGWYRQAPGKERELVAAISRSGGSTFYADSVKGRFTISRDNAKNTVYLQINSLKPEDTAVYYCAAPVYLYGTVGRGDYWGQGTQVTVSS | high polyreactivity
19 | QVQLVESGGGLVQAGGSLRLSCAASGSTFTGNAMGWYRQAPGKERELVAAITKGGSRTYYADSVKGRFTISRDNAKNTVYLQMNSLKPEDTAVYYCAATSRGTDYWGQGTQVTVSS | high polyreactivity
20 | QVQLVESGGGLVQAGGSLRLSCAASGSTFTGNVMGWYRQAPGKERELVAAIRDSGGSTYYADSVKGRFTISRDNAKNTVYLQMNSLKPEDTAVYYCDAEYLYGSYYGYYYWGQGTQVTVSS | low polyreactivity
21 | QVQLVESGGGLVQAGGSLRLSCAASGSTFTGYAMGWYRQAPGKERELVAGITGSGGSTYYADSVKGRFTISRDNATNTVYLQMNSLKPEDTAVFYCAAAFWYQYVWLDYYWGQGTQVTVSS | low polyreactivity
22 | QVQLVESGGGLVQAGGSLRLSCAASGSTFTHYAMGWYIQAPWKERELVAGISWGGSSTYYADSVKGRFTISRDNAKNTVYLQMNSLKPEDTAVYYCAAGRRGSYPGGYGYWGQGTQVTVSS | low polyreactivity

Row | Sequence | polyreactivity (PSR sort gate)
23 | QVQLVESGGGLVQAGGSLRLSCAASGSTFTHYAMGWYRQAPGKERELVAAITSSGGSTYYADSVKGRFTISRDNAKNTDYLQMNSLKPVDTAVYYCAARGSYRNRYRHDYWGQGTQVTVSS | high polyreactivity
24 | QVQLVESGGGLVQAGGSLRLSCAASGSTFTHYVMGWYRQEPGKQREIVAAISDSGSTYYADSVKGRFTISRDNAKNTVYLQMNSLNPEDTAVYYCNADDVDFYYGYGYLYYDYWGQGTQVTVSS | low polyreactivity
25 | QVQLVESGGGLVQAGGSLRLSCAASGSTFTINAMGWYRQAPGKERELVAAISWSDVDTYYADSVKGRFTISGDTAKNTVYLQMNSLKPEDTAVYYCSAQFSYRYYTDEVGYLGQGTQVTVSS | high polyreactivity
26 | QVQLVESGGGLVQAGGSLRLSCAASGSTFTIYAMGWYRQAPGKEREFVAAIDEDDGSTYYADSVKGRFTISRDNAKNTVYLQMNSLKPEDTAVYYCNADDIWGYAFDYWGQGTQVTVSS | low polyreactivity
27 | QVQLVESGGGLVQAGGSLRLSCAASGSTFTLNAMGWYRQAPGKERELVADISWSSGRTYYADSVKGRFTISRDTEKNTVYLQMNSLKPEDTAVYYCATDDLSIVKFYAYYPEFDYWGQGTQVTVSS | low polyreactivity
28 | QVQLVESGGGLVQAGGSLRLSCAASGSTFTLYAMGWYRQAPGKERELVATIDWSGGSTYYADSVKGRFTISRDNAKNTVYLQMNSLKPEDTAVYYCAADSYVVFYRGYTFIAVHSYEYWGQGTQVTVSS | low polyreactivity
29 | QVQLVESGGGLVQAGGSLRLSCAASGSTFTNYAMGWYRQAPGKEREFVAAITFRGGRTYYADSVKGRFTISRDNAKNTVYLQMNSLKPEDTAVYYCNKRTSPKRFDYWGQGTQVTVSS | high polyreactivity
30 | QVQLVESGGGLVQAGGSLRLSCAASGSTFTNYAMGWYRQAPGKERELVAAINSGGSTHYADSVKGRFTISRDNAKNTVYLQMNSLKPEDTAVYYCAADPSALVYYWRWLGYDYWGQGTQVTVSS | high polyreactivity
31 | QVQLVESGGGLVQAGGSLRLSCAASGSTFTPNAMGWYRQAPGKERELVAAITTRGSSTYYADSVKGRFTISRDNAKNTVYLQMNSLKPEDTAVYYCNAGVTFRRYDYWGQGTQVTVSS | high polyreactivity
32 | QVQLVESGGGLVQAGGSLRLSCAASGSTFTPYAIGWYRQAPGKERELVAAIRRGGSTNYADSVKGRFTISRDNAKNTVYLQMNSLKPEDTAVYYCAATKRRFVKFDYWGQGTQVTVSS | low polyreactivity
33 | QVQLVESGGGLVQAGGSLRLSCAASGSTFTPYAMGWYRQAPGKERELVAAISIRGGSTNYADSVKGRFTISRDNAKNTVYLQMNSLKPEDTAVYYCNAGRLRYIFKSYDYWGQGTQVTVSS | high polyreactivity
34 | QVQLVESGGGLVQAGGSLRLSCAASGSTFTPYAMGWYRQAPGKERELVAAISWSDDSTYYADSVKGRFTISRDIAKNTVYLQMNSLKPEDTAVYYCAASAYVDYGVYTYIMDYWGQGTQVTVSS | high polyreactivity
35 | QVQLVESGGGLVQAGGSLRLSCAASGSTFTQYAMGWYRQEPGKERELVAAITGSGGRTYYADSVKGRFTISRDNAKNTVYLQMNSLKPEDTAVYYCAARDKFGGYYHWGQGTQVTVSS | high polyreactivity
36 | QVQLVESGGGLVQAGGSLRLSCAASGSTFTRNAMGLYRQAPGKERELVAAITSGGSTNYADSVKGRFTISRDNAKNTVYLQMNSLKPEDTAVYYCNAESPLSYTRHDSWGQGTQVTVSS | low polyreactivity
37 | QVQLVESGGGLVQAGGSLRLSCAASGSTFTRNAMGWYRQAPGKERELVATISRSGGSTYYADSVKGRFTISRDNAKNTVYLQMNSLKPEDTAVYYCARPYQYYKFYSHDYWGQGTQVTVSS | high polyreactivity
38 | QVQLVESGGGLVQAGGSLRLSCAASGSTFTRYAMGWYRQAPGKERELVAAISSGGSTYADSVKGRFTISRDNAKNTVYLQMNSLKPEDTAVYYCAARLYTYPKGKYWGQGTQVTVSS | high polyreactivity
39 | QVQLVESGGGLVQAGGSLRLSCAASGSTFTRYAMGWYRQAPGKERELVAGITGRGGSTYYADSVKGRFTISRDNAKNTVYFQMNSLKPEDTAVYYCNKRRRGVTTYDYWGQGTQVTVSS | high polyreactivity
40 | QVQLVESGGGLVQAGGSLRLSCAASGSTFTRYGMGWYRQAPGKEREMVAAITTSGSSTYYADSVKGRFTISRDNAKNTVYLQMNSLKPEDTAVYYCAADWSSWGFDYWGQGTQVNVSS | low polyreactivity
41 | QVQLVESGGGLVQAGGSLRLSCAASGSTFTSNAMGWYRQAPGKERELVASISGSGGRTYYADSVKGRFTISRDNAKNTVYLQMNSLKPEDTAVYYCARRHSVRTVHGYDYWGQGTQVTVSS | low polyreactivity
42 | QVQLVESGGGLVQAGGSLRLSCAASGSTFTSYAKGCYRQAPGKERELVAAISRRGTSTYYADSVKGRFTISRDNAKHTVYLQMNSLKPEDTAVYYCAADGYYCEYYYWGQGTQVTVSS | high polyreactivity
43 | QVQLVESGGGLVQAGGSLRLSCAASGSTFTSYAMGWYRQAPGKEREFVAAISWSGGSTYYADSVKGRFTISRDNAKNTVYLQMNSLKPEDTAVYYCNAVLRSYYSPWYDYWGQATQVTVSS | high polyreactivity
